Source: paper PMC4855633

Molecular target: fibrous bovine collagen I (bovine) (UniProt P02453)
Chain of UniProt P02453 (P02453 162-1217, chain 1 of 2): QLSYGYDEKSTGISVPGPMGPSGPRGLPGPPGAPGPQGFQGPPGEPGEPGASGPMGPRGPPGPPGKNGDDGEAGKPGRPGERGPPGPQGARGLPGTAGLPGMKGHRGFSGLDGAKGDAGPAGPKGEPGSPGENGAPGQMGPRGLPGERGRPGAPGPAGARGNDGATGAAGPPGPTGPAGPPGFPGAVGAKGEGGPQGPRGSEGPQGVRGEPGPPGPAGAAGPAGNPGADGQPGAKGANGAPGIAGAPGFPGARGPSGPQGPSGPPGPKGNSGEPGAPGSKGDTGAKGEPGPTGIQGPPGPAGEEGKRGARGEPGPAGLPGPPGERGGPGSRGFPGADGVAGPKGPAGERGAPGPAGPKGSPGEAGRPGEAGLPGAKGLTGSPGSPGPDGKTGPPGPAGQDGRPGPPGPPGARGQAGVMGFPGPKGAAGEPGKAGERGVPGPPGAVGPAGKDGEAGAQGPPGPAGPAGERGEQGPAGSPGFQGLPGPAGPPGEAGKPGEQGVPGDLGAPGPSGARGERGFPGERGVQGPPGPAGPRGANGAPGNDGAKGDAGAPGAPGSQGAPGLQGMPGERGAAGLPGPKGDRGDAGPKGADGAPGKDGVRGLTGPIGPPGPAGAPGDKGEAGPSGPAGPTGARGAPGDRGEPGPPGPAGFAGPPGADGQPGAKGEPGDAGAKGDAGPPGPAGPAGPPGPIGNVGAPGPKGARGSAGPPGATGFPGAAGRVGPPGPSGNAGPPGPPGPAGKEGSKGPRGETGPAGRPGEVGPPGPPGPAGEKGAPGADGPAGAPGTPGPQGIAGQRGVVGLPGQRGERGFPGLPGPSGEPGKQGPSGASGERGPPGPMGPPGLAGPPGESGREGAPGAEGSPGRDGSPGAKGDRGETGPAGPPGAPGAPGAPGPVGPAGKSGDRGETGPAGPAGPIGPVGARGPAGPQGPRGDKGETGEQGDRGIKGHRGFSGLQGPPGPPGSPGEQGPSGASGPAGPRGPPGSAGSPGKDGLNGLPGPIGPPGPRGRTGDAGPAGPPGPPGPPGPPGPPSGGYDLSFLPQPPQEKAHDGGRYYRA
Chain of UniProt P02453 (P02465 80-1117, chain 2 of 2, further chain): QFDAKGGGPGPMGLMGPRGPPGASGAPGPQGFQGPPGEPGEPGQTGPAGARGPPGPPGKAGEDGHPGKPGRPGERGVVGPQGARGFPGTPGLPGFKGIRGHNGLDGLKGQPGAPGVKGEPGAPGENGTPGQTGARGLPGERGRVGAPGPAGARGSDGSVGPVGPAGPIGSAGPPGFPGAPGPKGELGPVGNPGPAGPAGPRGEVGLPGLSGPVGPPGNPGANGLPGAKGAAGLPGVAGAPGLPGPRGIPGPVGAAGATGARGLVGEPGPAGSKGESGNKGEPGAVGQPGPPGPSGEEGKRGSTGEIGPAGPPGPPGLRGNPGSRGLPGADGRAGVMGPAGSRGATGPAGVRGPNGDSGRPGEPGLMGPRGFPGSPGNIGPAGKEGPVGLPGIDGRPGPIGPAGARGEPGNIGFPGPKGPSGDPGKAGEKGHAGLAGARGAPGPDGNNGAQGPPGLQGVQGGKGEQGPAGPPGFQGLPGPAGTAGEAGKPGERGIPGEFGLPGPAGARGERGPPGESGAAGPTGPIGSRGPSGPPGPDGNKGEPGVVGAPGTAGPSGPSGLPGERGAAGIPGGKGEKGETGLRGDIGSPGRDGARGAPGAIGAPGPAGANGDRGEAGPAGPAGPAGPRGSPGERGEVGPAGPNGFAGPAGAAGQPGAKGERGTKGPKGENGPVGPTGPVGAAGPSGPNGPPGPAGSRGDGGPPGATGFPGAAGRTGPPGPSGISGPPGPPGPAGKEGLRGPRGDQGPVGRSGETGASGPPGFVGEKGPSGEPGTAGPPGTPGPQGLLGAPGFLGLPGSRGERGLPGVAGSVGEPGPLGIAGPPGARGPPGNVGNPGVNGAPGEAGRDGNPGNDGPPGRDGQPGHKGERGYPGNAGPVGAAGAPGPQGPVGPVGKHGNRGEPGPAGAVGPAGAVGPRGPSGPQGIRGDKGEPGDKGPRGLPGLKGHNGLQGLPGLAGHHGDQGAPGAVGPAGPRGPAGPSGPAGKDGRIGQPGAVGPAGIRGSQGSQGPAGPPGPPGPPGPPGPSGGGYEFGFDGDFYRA

glycoprotein VI (from UniProt Q9HCN6 21-339) (receptor)
reduction of static adhesion of washed human platelets to fibrous collagen I by anti-GPVI scFv in the presence of EDTA, relative to EDTA alone: 40%
reduction of static adhesion of washed human platelets to fibrous collagen I by anti-GPVI scFv in the presence of EDTA, relative to control: 70%
